In patent US9958461B2, “Detection of protein to protein interactions” (THE GOVERNING COUNCIL OF THE UNIVERSITY OF TORONTO, priority 2013, dated 2018):

What was measured:
[1] = target: T1, EGFR-Wt (Homo sapiens, UniProt P00533); assay: MaMTH EGFR-interactor screen, lentiviral preys against EGFR-wildtype bait (interaction score); type: cell-based; details: MaMTH interaction score of prey with EGFR-Wt bait, mean
T1 construct: with the advantage of testing full-length integral membrane proteins; (GGGGS)2 linker-Cub (human ubiquitin aa 35-76)-GAL4(1-147)-mNFkB(364-550) (C); expressed in transfected cells
Description: (§1) After lentivirus harvest, target cells (stable 5×GAL4UAS-luciferase reporter-HEK293T cells) were infected at a multiplicity of infection (MOI) of around 0.3-0.4 to ensure single copy integration per cell. Cells were selected in puromycin for at least 48 h and transfected with either EGFR-wildtype or EGFR-L858R baits in triplicates. 24 h after transfection, cells were lysed and luciferase assays performed. On each set of interaction assays, various negative controls were included. To calculate a MaMTH-interaction scores, negative controls were averaged and the fold-change of luciferase activity compared to the averaged controls was calculated and defined as the interaction score.
(§2) Each set of experiments contains a defined set of negative controls in at least three replicates. Negative controls were chosen as such that there is a range of controls showing high-background luciferase activity (normally cytosolic proteins: Fabp5, Pex19) as well as medium-background luciferase activity (membrane-bound interactors: Pex7, GABBR2). Negative controls were averaged and the fold-change of luciferase activity was calculated. Using this method, we have a stringent cut-off and chose an interaction score >1 to be interacting proteins.
(§3) Our cut-off of 1 is based on fold-change difference in luciferase activity over averaged negative controls. Negative controls include cytosolic preys (which tend to promiscuously bind to many proteins), plasma membrane- and peroxisomal-prey proteins. In general, we chose stringent conditions by testing preys that tend to have high luciferase background with any bait tested, in order to generate high-confidence interaction data. […] Phosphorylated tyrosine residues on the receptor are typically docking sites for downstream cytoplasmic targets and recognized through SH2 or PTB domains^43.

[2] = system: EGFR-Wt; assay: as above; type: cell-based, human; details: ratio of EGFR-Wt mean to EGFR-L858R mean interaction score
Description: as §1, §2, §3

[3] = target: T2, EGFR-L858R (Homo sapiens, UniProt P00533, L858R); assay: MaMTH EGFR-interactor screen, lentiviral preys against EGFR-L858R bait (interaction score); type: cell-based; details: MaMTH interaction score of prey with EGFR-L858R bait
T2 construct: with the advantage of testing full-length integral membrane proteins; (GGGGS)2 linker-Cub (human ubiquitin aa 35-76)-GAL4(1-147)-mNFkB(364-550) (C); expressed in transfected cells
Description: as §1, §2, §3

B1: CSK (protein, UniProt P41240 2-450, looked up)
Tyrosine-protein kinase CSK: SAIQAAWPSGTECIAKYNFHGTAEQDLPFCKGDVLTIVAVTKDPNWYKAKNKVGREGIIPANYVQKREGVKAGTKLSLMPWFHGKITREQAERLLYPPETGLFLVRESTNYPGDYTLCVSCDGKVEHYRIMYHASKLSIDEEVYFENLMQLVEHYTSDADGLCTRLIKPKVMEGTVAAQDEFYRSGWALNMKELKLLQTIGKGEFGDVMLGDYRGNKVAVKCIKNDATAQAFLAEASVMTQLRHSNLVQLLGVIVEEKGGLYIVTEYMAKGSLVDYLRSRGRSVLGGDCLLKFSLDVCEAMEYLEGNNFVHRDLAARNVLVSEDNVAKVSDFGLTKEASSTQDTGKLPVKWTAPEALREKKFSTKSDVWSFGILLWEIYSFGRVPYPRIPLKDVVPRVEKGYKMDAPDGCPPAVYEVMKNCWHLDAAMRPSFLQLREQLEHIKTHELHL
EGFR-Wt mean [1]: 8.40
Wt/L858R [2]: 1.43
EGFR-L858R mean [3]: 5.86

B2: RAPGEF1 (protein, UniProt Q13905 1-1077, looked up)
Rap guanine nucleotide …: MDTDSQRSHLSSFTMKLMDKFHSPKIKRTPSKKGKPAEVSVKIPEKPVNKEATDRFLPEGYPLPLDLEQQAVEFMSTSAVASRSQRQKNLSWLEEKEKEVVSALRYFKTIVDKMAIDKKVLEMLPGSASKVLEAILPLVQNDPRIQHSSALSSCYSRVYQSLANLIRWSDQVMLEGVNSEDKEMVTTVKGVIKAVLDGVKELVRLTIEKQGRPSPTSPVKPSSPASKPDGPAELPLTDREVEILNKTTGMSQSTELLPDATDEEVAPPKPPLPGIRVVDNSPPPALPPKKRQSAPSPTRVAVVAPMSRATSGSSLPVGINRQDFDVDCYAQRRLSGGSHSYGGESPRLSPCSSIGKLSKSDEQLSSLDRDSGQCSRNTSCETLDHYDPDYEFLQQDLSNADQIPQQTAWNLSPLPESLGESGSPFLGPPFQLPLGGHPQPDGPLAPGQQTDTPPALPEKKRRSAASQTADGSGCRVSYERHPSQYDNISGEDLQSTAPIPSVPYAPFAAILPFQHGGSSAPVEFVGDFTAPESTGDPEKPPPLPEKKNKHMLAYMQLLEDYSEPQPSMFYQTPQNEHIYQQKNKLLMEVYGFSDSFSGVDSVQELAPPPALPPKQRQLEPPAGKDGHPRDPSAVSGVPGKDSRDGSERAPKSPDALESAQSEEEVDELSLIDHNEIMSRLTLKQEGDDGPDVRGGSGDILLVHATETDRKDLVLYCEAFLTTYRTFISPEELIKKLQYRYEKFSPFADTFKKRVSKNTFFVLVRVVDELCLVELTEEILKLLMELVFRLVCNGELSLARVLRKNILDKVDQKKLLRCATSSQPLAARGVAARPGTLHDFHSHEIAEQLTLLDAELFYKIEIPEVLLWAKEQNEEKSPNLTQFTEHFNNMSYWVRSIIMLQEKAQDRERLLLKFIKIMKHLRKLNNFNSYLAILSALDSAPIRRLEWQKQTSEGLAEYCTLIDSSSSFRAYRAALSEVEPPCIPYLGLILQDLTFVHLGNPDYIDGKVNFSKRWQQFNILDSMRCFQQAHYDMRRNDDIINFFNDFSDHLAEEALWELSLKIKPRNITRRKTDREEKT
EGFR-Wt mean [1]: 3.48
Wt/L858R [2]: 1.10
EGFR-L858R mean [3]: 3.15

B3: STAM (protein, UniProt Q92783 2-540, looked up)
Signal transducing adapter …: PLFATNPFDQDVEKATSEMNTAEDWGLILDICDKVGQSRTGPKDCLRSIMRRVNHKDPHVAMQALTLLGACVSNCGKIFHLEVCSRDFASEVSNVLNKGHPKVCEKLKALMVEWTDEFKNDPQLSLISAMIKNLKEQGVTFPAIGSQAAEQAKASPALVAKDPGTVANKKEEEDLAKAIELSLKEQRQQSTTLSTLYPSTSSLLTNHQHEGRKVRAIYDFEAAEDNELTFKAGEIITVLDDSDPNWWKGETHQGIGLFPSNFVTADLTAEPEMIKTEKKTVQFSDDVQVETIEPEPEPAFIDEDKMDQLLQMLQSTDPSDDQPDLPELLHLEAMCHQMGPLIDEKLEDIDRKHSELSELNVKVMEALSLYTKLMNEDPMYSMYAKLQNQPYYMQSSGVSGSQVYAGPPPSGAYLVAGNAQMSHLQSYSLPPEQLSSLSQAVVPPSANPALPSQQTQAAYPNTMVSSVQGNTYPSQAPVYSPPPAATAAAATADVTLYQNAGPNMPQVPNYNLTSSTLPQPGGSQQPPQPQQPYSQKALL
EGFR-Wt mean [1]: 0.56
Wt/L858R [2]: 0.23
EGFR-L858R mean [3]: 2.49

B4: GRAP2 (protein, UniProt O75791 1-330, looked up)
GRB2-related adapter protein 2: MEAVAKFDFTASGEDELSFHTGDVLKILSNQEEWFKAELGSQEGYVPKNFIDIQFPKWFHEGLSRHQAENLLMGKEVGFFIIRASQSSPGDFSISVRHEDDVQHFKVMRDNKGNYFLWTEKFPSLNKLVDYYRTNSISRQKQIFLRDRTREDQGHRGNSLDRRSQGGPHLSGAVGEEIRPSMNRKLSDHPPTLPLQQHQHQPQPPQYAPAPQQLQQPPQQRYLQHHHFHQERRGGSLDINDGHCGTGLGSEMNAALMHRRHTDPVQLQAAGRVRWARALYDFEALEDDELGFHSGEVVEVLDSSNPSWWTGRLHNKLGLFPANYVAPMTR
EGFR-Wt mean [1]: 1.79
Wt/L858R [2]: 0.22
EGFR-L858R mean [3]: 8.12

B5: TNK2 (protein, UniProt Q07912 1-1038, looked up)
Activated CDC42 kinase 1: MQPEEGTGWLLELLSEVQLQQYFLRLRDDLNVTRLSHFEYVKNEDLEKIGMGRPGQRRLWEAVKRRKALCKRKSWMSKVFSGKRLEAEFPPHHSQSTFRKTSPAPGGPAGEGPLQSLTCLIGEKDLRLLEKLGDGSFGVVRRGEWDAPSGKTVSVAVKCLKPDVLSQPEAMDDFIREVNAMHSLDHRNLIRLYGVVLTPPMKMVTELAPLGSLLDRLRKHQGHFLLGTLSRYAVQVAEGMGYLESKRFIHRDLAARNLLLATRDLVKIGDFGLMRALPQNDDHYVMQEHRKVPFAWCAPESLKTRTFSHASDTWMFGVTLWEMFTYGQEPWIGLNGSQILHKIDKEGERLPRPEDCPQDIYNVMVQCWAHKPEDRPTFVALRDFLLEAQPTDMRALQDFEEPDKLHIQMNDVITVIEGRAENYWWRGQNTRTLCVGPFPRNVVTSVAGLSAQDISQPLQNSFIHTGHGDSDPRHCWGFPDRIDELYLGNPMDPPDLLSVELSTSRPPQHLGGVKKPTYDPVSEDQDPLSSDFKRLGLRKPGLPRGLWLAKPSARVPGTKASRGSGAEVTLIDFGEEPVVPALRPCAPSLAQLAMDACSLLDETPPQSPTRALPRPLHPTPVVDWDARPLPPPPAYDDVAQDEDDFEICSINSTLVGAGVPAGPSQGQTNYAFVPEQARPPPPLEDNLFLPPQGGGKPPSSAQTAEIFQALQQECMRQLQAPAGSPAPSPSPGGDDKPQVPPRVPIPPRPTRPHVQLSPAPPGEEETSQWPGPASPPRVPPREPLSPQGSRTPSPLVPPGSSPLPPRLSSSPGKTMPTTQSFASDPKYATPQVIQAPGPRAGPCILPIVRDGKKVSSTHYYLLPERPSYLERYQRFLREAQSPEEPTPLPVPLLLPPPSTPAPAAPTATVRPMPQAALDPKANFSTNNSNPGARPPPPRATARLPQRGCPGDGPEAGRPADKIQMAMVHGVTTEECQAALQCHGWSVQRAAQYLKVEQLFGLGLRPRGECHKVLEMFDWNLEQAGCHLLGSWGPAHHKR
EGFR-Wt mean [1]: 1.51
Wt/L858R [2]: 1.16
EGFR-L858R mean [3]: 1.30

B6: RIN1 (protein, UniProt Q13671 1-783, looked up)
Ras and Rab interactor 1: MESPGESGAGSPGAPSPSSFTTGHLAREKPAQDPLYDVPNASGGQAGGPQRPGRVVSLRERLLLTRPVWLQLQANAAAALHMLRTEPPGTFLVRKSNTRQCQALCMRLPEASGPSFVSSHYILESPGGVSLEGSELMFPDLVQLICAYCHTRDILLLPLQLPRAIHHAATHKELEAISHLGIEFWSSSLNIKAQRGPAGGPVLPQLKARSPQELDQGTGAALCFFNPLFPGDLGPTKREKFKRSFKVRVSTETSSPLSPPAVPPPPVPVLPGAVPSQTERLPPCQLLRRESSVGYRVPAGSGPSLPPMPSLQEVDCGSPSSSEEEGVPGSRGSPATSPHLGRRRPLLRSMSAAFCSLLAPERQVGRAAAALMQDRHTAAGQLVQDLLTQVRAGPEPQELQGIRQALSRARAMLSAELGPEKLLSPKRLEHVLEKSLHCSVLKPLRPILAARLRRRLAADGSLGRLAEGLRLARAQGPGAFGSHLSLPSPVELEQVRQKLLQLLRTYSPSAQVKRLLQACKLLYMALRTQEGEGAGADEFLPLLSLVLAHCDLPELLLEAEYMSELLEPSLLTGEGGYYLTSLSASLALLSGLGQAHTLPLSPVQELRRSLSLWEQRRLPATHCFQHLLRVAYQDPSSGCTSKTLAVPPEASIATLNQLCATKFRVTQPNTFGLFLYKEQGYHRLPPGALAHRLPTTGYLVYRRAEWPETQGAVTEEEGSGQSEARSRGEEQGCQGDGDAGVKASPRDIREQSETTAEGGQGQAQEGPAQPGEPEAEGSRAAEE
EGFR-Wt mean [1]: 2.19
Wt/L858R [2]: 1.19
EGFR-L858R mean [3]: 1.84

B7: SH3GL3 (protein, UniProt Q99963 1-347, looked up)
Endophilin-A3: MSVAGLKKQFHKASQLFSEKISGAEGTKLDDEFLDMERKIDVTNKVVAEILSKTTEYLQPNPAYRAKLGMLNTVSKIRGQVKTTGYPQTEGLLGDCMLKYGKELGEDSTFGNALIEVGESMKLMAEVKDSLDINVKQTFIDPLQLLQDKDLKEIGHHLKKLEGRRLDYDYKKKRVGKIPDEEVRQAVEKFEESKELAERSMFNFLENDVEQVSQLAVFIEAALDYHRQSTEILQELQSKLQMRISAASSVPRREYKPRPVKRSSSELNGVSTTSVVKTTGSNIPMDQPCCRGLYDFEPENQGELGFKEGDIITLTNQIDENWYEGMIHGESGFFPINYVEVIVPLPQ
EGFR-Wt mean [1]: 3.41
Wt/L858R [2]: 1.05
EGFR-L858R mean [3]: 3.26
